Test results taken from patent publication US20220260563A1.

Legend:
Assay in all cases: cell-based or functional assay
[1] = molecular target: AAV2 capsid (AAV2-Luciferase vector virions) (AAV2) (UniProt P03135)
[2] = molecular target: human intravenous immunoglobulin gamma (IVIG), 10% Human IVIG (Gamunex) (human)
[3] = molecular target: AAV2 capsid (AAV2-Luciferase vector virions) (AAV2) (UniProt P03135); remark: listed apart in the source
[4] = molecular target: human intravenous immunoglobulin gamma (IVIG), 10% Human IVIG (Gamunex) (human); remark: listed apart in the source
[5] = molecular target: AAV neutralizing antibodies in AAV8-GFP immunized C57BL6 mice (mouse)

UniProt P03135, sequence (P03135 whole entry, the tested form may be a part): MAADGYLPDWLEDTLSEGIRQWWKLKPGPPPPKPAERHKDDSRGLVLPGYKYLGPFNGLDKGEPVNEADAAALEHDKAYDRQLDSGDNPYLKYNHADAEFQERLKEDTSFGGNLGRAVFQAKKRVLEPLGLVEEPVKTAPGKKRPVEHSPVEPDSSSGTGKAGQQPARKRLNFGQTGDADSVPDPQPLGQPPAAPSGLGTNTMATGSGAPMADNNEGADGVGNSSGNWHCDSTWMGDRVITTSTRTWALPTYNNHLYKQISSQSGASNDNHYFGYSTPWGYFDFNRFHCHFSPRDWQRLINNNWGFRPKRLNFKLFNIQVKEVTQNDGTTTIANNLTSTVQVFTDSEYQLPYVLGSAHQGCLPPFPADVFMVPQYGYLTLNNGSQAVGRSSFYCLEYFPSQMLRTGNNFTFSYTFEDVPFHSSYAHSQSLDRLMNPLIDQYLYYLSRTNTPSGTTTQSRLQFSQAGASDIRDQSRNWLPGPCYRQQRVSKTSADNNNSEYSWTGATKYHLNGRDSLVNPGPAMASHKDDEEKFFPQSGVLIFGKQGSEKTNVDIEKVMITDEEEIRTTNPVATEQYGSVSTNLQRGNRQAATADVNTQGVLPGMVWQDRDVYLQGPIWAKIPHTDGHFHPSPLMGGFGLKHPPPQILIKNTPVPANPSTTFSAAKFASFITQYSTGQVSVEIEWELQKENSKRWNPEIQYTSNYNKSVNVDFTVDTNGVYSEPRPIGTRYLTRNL

“Protein M without cleavage of His tag (from UniProt P47523 37-556)” was tested, and the molar ratio of protein M to AAV2 particle at which enhancement begins to saturate (protein M molecules per AAV2 particle) [1] was 700000, the molar ratio of protein M to AAV2 particle below which enhancement of luciferase signal is abolished (protein M molecules per AAV2 particle) [1] was < 40000 and the molar ratio of protein M to IVIG that protects AAV2 when protein M is pre-incubated with AAV2 (protein M molecules per IgG molecule) [2] was > 2. For the same molecule, the protection of AAV2 from IVIG neutralization in 10% FBS, protein M to total IgG molar ratio (protein M molecules per IgG molecule) [2] was 1.

For “human intravenous immunoglobulin gamma (IVIG), 10% Human IVIG (Gamunex) (antibody)”, the percent of AAV2-Luciferase signal neutralized by 12.5 µg IVIG [1] was 80%, the percent of AAV2 neutralized by 12.5 µg IVIG [1] was 75% and the percent of AAV2 neutralized by 200 µg IVIG [1] was 100%. For the same molecule, the reduction in AAV signal by 12.5 µg IVIG without protein M [1] was 68%.

B1: protein M (SEQ ID NO:2), His-tag removed by thrombin cleavage (protein)
chain: HHHHHHSSGLVPRGSHMTNLVNQSGYALVASGRSGNLGFKLFSTQSPSAEVKLKSLSLNDGSYQSEIDLSGGANFREKFRNFANELSEAITNSPKGLDRPVPKTEISGLIKTGDNFITPSFKAGYYDHVASDGSLLSYYQSTEYFNNRVLMPILQTTNGTLMANNRGYDDVFRQVPSFSGWSNTKATTVSTSNNLTYDKWTYFAAKGASPLYDSYPNHFFEDVKTLAIDAKDISALKTTIDSEKPTYLIIRGLSGNGSQLNELQLPESVKKVSLYGDYTGVNVAKQIFANVVELEFYSTSKANSEGFNPLVLGSKTNVIYDLFASKPFTHIDLTQVTLQNSDNSAIDANKLKQAVGDIYNYRRFERQFQGYFAGGYIDKYLVKNVNTNKDSDDDLVYRSLKELNLHLEEAYREGDNTYYRVNENYYPGASIYENERASRDSEFQNEILKRAEQNGVTFDENIKRITASGKYSVQFQKLENDTDSSLERMTKAVEGLVTVIGEEKFETVDITGVSSDTNEVKSLAKELKTNALGVKLKL
In the case of B1, the AAV2 luciferase signal relative to PBS control, 33 µg protein M incubated with AAV2 without IVIG (% of PBS control) [3] is reported as 216, the AAV2 luciferase signal relative to PBS control, 75 µg protein M incubated with AAV2 without IVIG (% of PBS control) [3] is reported as 208 and the AAV2 luciferase signal, percent of no-IVIG control, at 8:1 molar ratio (33 µg protein M, 12.5 µg IVIG) (% of no-IVIG control) [4] is reported as 194. The AAV2 luciferase signal, percent of no-IVIG control, at 20:1 molar ratio (75 µg protein M, 12.5 µg IVIG) (% of no-IVIG control) [4] was 256, the AAV2 luciferase signal, percent of no-IVIG control, at protein M:IgG molar ratio 0.5:1 (% of no-IVIG control) [4] was 40 and the AAV2 luciferase signal, percent of no-IVIG control, at protein M:IgG molar ratio 1:1 (% of no-IVIG control) [4] was 52. The AAV2 luciferase signal, percent of no-IVIG control, at protein M:IgG molar ratios greater than 2:1 (% of no-IVIG control) [4] was 108 to 193 and the molar ratio of protein M to IgG sufficient to prevent AAV2 neutralization (protein M molecules per IgG molecule) [4] was 2.

B2: Modified M. genitalium protein M MG29 (protein, not shown: small tags and cut ends)
chain: SLSLNDGSYQSEIDLSGGANFREKFRNFANELSEAITNSPKGLDRPVPKTEISGLIKTGDNFITPSFKAGYYDHVAEDGSLLSYYQSTEYFNNRVLMPILQTTNGTLMANNRGYDDVFRQVPRFPGWSNTKATTVSTSNNLTYDKWTYFAAKGSPLYDQYPNHTFEDVKTLAIDAKDISALKTTIDSEKPTYLIIRGLSGNGSQLNELQLPESVKKVSLYGDYTGVNVAKQIFANVVELEFYSTSKANSFGFNPLVLGSKTNVINDLFVSKPFTHIDLTQVTLQNSDNSAIDANKLKQAVGDIYNYRRFERQFQGYFAGGYIDKYLVKNVNTNKDSDDDLVYRSLKELNLHLEEAYREGDNTYYRVNENYYPGASIYENERASRDSEFQNEILKRAEQNGVTFDEN
In the case of B2, the luciferase signal of the saline leg against the protein M formulated leg, AAV8-Luciferase re-dosing in immunized mice [5] is reported as > 98 % less.
